Paper PMC5171221
Where two headings read alike, the source gives them in different places.

T1: apododecin DtE (triple E variant) (Halobacterium salinarum, UniProt B0R5M0 1-68, E45A;del50-50;del51-51)
T1 sequence: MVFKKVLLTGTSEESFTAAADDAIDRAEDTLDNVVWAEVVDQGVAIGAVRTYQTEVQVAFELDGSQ

B1: flavin-dsLNA 7 bp surface tether (XNA)
?: GGGCGAC
DNA: GTCGCCC
modifications: LNA; strand 1 5' flavin (CofC4); strand 2 5' 1,2-dithiane, on gold
B2: flavin-dsDNA 100 bp surface tether (dsDNA)
DNA 1: GTCACGATGGCCCAGTAGTT
DNA 2: AACTACTGGGCCATCGTGAC
DNA 3: CGCCGCCGCCGACGACGCCATCGACCGCGCGGAGGACACCCTCGACAACGTGGTGTGGGCGTCACGATGGCCCAGTAGTT
DNA 4: GCCCACACCACGTTGTCGAGGGTGTCCTCCGCGCGGTCGATGGCGTCGTCGGCGGCGGCGAACTACTGGGCCATCGTGAC
modifications: strand 1 5' flavin (CofC4); strand 2 5' (dithiane)3, on gold

How the values were obtained:
[1] = target: T1, apododecin DtE (triple E variant); assay: QCM-D
[2] = target: T1, apododecin DtE (triple E variant); assay: QCM-D; remark: listed apart in the source

| Binder | binding result [1] | binding result [2] |
| --- | --- | --- |
| B1 | binds | – |
| B2 | – | binds |
